Test results taken from CN114349860A (SHENZHEN GUEN BIOTECHNOLOGY CO LTD, dated 2022).

Biological target: T1, FGFR4蛋白 (FGFR4 protein antigen, bought from Sino Biological / 义翘神州) (human, UniProt P22455 22-369, limits assumed)
T1 construct: also called FGFR4蛋白抗原; 成纤维细胞生长因子受体4
T1 sequence (looked up): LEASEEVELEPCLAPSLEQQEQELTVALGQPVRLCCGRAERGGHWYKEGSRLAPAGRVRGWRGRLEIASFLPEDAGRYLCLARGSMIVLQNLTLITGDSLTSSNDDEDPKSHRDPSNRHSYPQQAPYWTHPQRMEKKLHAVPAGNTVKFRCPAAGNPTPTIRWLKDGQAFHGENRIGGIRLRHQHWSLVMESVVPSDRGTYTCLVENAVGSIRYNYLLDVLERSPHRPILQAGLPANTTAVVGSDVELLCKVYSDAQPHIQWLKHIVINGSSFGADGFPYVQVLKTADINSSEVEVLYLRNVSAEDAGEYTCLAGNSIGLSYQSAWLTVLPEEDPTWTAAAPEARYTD
Test: BLI (OCTET K2), FGFR4 protein 10 ug/mL loaded on AHC sensors, 1B5 at 566.7-8.84 nM in solution

Kd: < 1 pM
B1: 抗成纤维细胞生长因子受体4单克隆抗体1B5 (antibody, V domains shown)
VH: EVMLVQSGPELKKPGETVKISCKASGYTFTNFGMNWVKQAPGKGLKWMGWINTYTGEPTYADDFKGRFVFSLETSASTAYLQINNLKNEDTATYLCVRSSSGYVFDYWGQGTIVTVG
VL: DIVMTQSPSSLAVSAGEKVTMSCKSSQSLLNSRTRKNYLAWYQQKPGQSPKLLIYWASTRESGVPDRFTGSGSGTDFTLTISSVQAEDLAVYYCKQSYNLLTFGEGTKLEIT
notes: Mouse hybridoma antibody (BALB/c), purified from ascites on Protein G and detected with anti-mouse IgG second antibodies; also called 1B5抗体; FGFR4单克隆抗体
